Data on 3 molecules can be found in article PMC6820745, “Structural and thermodynamic basis for the recognition of the substrate-binding cleft on hen egg lysozyme by a single-domain antibody” (Scientific Reports, 2019).

Positions count from the first letter of the chain named.

Experiment [1] deals with hen egg lysozyme (hen) (UniProt P00698). The experiment can be described thus: ITC; iTC200; 25 °C; PBS; VHH (10 uM) in the cell titrated with HEL (100 uM); 1:1 binding model.
The target is the same in experiment [2]. The experiment in a line: SPR; as a1, but KD from the responses in equilibrium (Scatchard plot, 1:1 model); HEL immobilised; 25 °C; PBS with 0.005% Tween 20.
In experiment [3] the target is T1, hen egg lysozyme (hen, UniProt P00698 19-147).
T1 construct: hen egg lysozyme (HEL), bought, used without further purification; also called HEL; source: bought: Wako Pure Chemical (Cat. No. 126-02671)
The experiment in a line: ITC; iTC200, 25 °C, PBS; VHH (10 µM) in the cell titrated with HEL (100 µM); 1:1 binding model; two independent measurements. The conditions noted are these: both partners purified.

In experiment [4] the target is hen egg lysozyme (hen) (UniProt P00698). The experiment in a line: SPR; Biacore T200; HEL immobilised on CM5 chip (200 RU); VHH flowed over; 25 °C; PBS with 0.005% Tween 20; global fit to a 1:1 binding model.
In experiment [5] the target is T1, hen egg lysozyme. The experiment can be described thus: SPR; HEL immobilised on CM5 chip (200 RU), VHH flowed over, multi-cycle, 10 °C, PBS with 0.005% Tween 20, global fit to a 1:1 binding model. The conditions noted are these: both partners purified.
Experiment [6] addresses T1, hen egg lysozyme. The experiment can be described thus: SPR; HEL immobilised on CM5 chip (200 RU), VHH flowed over, multi-cycle, 14 °C, PBS with 0.005% Tween 20, global fit to a 1:1 binding model. The conditions noted are these: both partners purified.
For experiment [7], the target named is T1, hen egg lysozyme. The experiment in a line: SPR; HEL immobilised on CM5 chip (200 RU), VHH flowed over, multi-cycle, 18 °C, PBS with 0.005% Tween 20, global fit to a 1:1 binding model. The conditions noted are these: both partners purified.
Experiment [8] has as its target T1, hen egg lysozyme. The experiment can be described thus: SPR; HEL immobilised on CM5 chip (200 RU), VHH flowed over, multi-cycle, 22 °C, PBS with 0.005% Tween 20, global fit to a 1:1 binding model. The conditions noted are these: both partners purified.
For experiment [9], the target named is T1, hen egg lysozyme. The experiment in a line: SPR; HEL immobilised on CM5 chip (200 RU), VHH flowed over, multi-cycle, 26 °C, PBS with 0.005% Tween 20, global fit to a 1:1 binding model. The conditions noted are these: both partners purified.
Experiment [10] concerns the target T1, hen egg lysozyme. The experiment can be described thus: SPR; HEL immobilised on CM5 chip (200 RU), VHH flowed over, 10 °C, PBS with 0.005% Tween 20, steady-state responses (Scatchard plot), 1:1 binding model. The conditions noted are these: both partners purified.
Experiment [11] deals with T1, hen egg lysozyme. The experiment can be described thus: SPR; HEL immobilised on CM5 chip (200 RU), VHH flowed over, 14 °C, PBS with 0.005% Tween 20, steady-state responses (Scatchard plot), 1:1 binding model. The note with it: both partners purified.
Experiment [12] has as its target T1, hen egg lysozyme. The experiment in a line: SPR; HEL immobilised on CM5 chip (200 RU), VHH flowed over, 18 °C, PBS with 0.005% Tween 20, steady-state responses (Scatchard plot), 1:1 binding model. The conditions noted are these: both partners purified.
Experiment [13] concerns the target T1, hen egg lysozyme. The experiment can be described thus: SPR; HEL immobilised on CM5 chip (200 RU), VHH flowed over, 22 °C, PBS with 0.005% Tween 20, steady-state responses (Scatchard plot), 1:1 binding model. The conditions noted are these: both partners purified.
The target in experiment [14] is T1, hen egg lysozyme. The experiment can be described thus: SPR; HEL immobilised on CM5 chip (200 RU), VHH flowed over, 26 °C, PBS with 0.005% Tween 20, steady-state responses (Scatchard plot), 1:1 binding model. The conditions noted are these: both partners purified.
The target of experiment [15] is T1, hen egg lysozyme. The experiment can be described thus: SPR; HEL immobilised on CM5 chip (200 RU), VHH flowed over, 30 °C, PBS with 0.005% Tween 20, steady-state responses (Scatchard plot), 1:1 binding model. The conditions noted are these: both partners purified.
The target of experiment [16] is hen egg lysozyme (hen) (UniProt P00698). The experiment can be described thus: SPR; HEL immobilised; measured at several temperatures; van't Hoff analysis (non-linear regression); PBS with 0.005% Tween 20; KD given for 25 °C from the van't Hoff free energy.
The target of experiment [17] is T2, hen egg lysozyme (Gallus gallus (hen), UniProt P00698).
T2 construct: hen egg lysozyme (lysozyme C), bought from Wako Pure Chemical; also called HEL; source: bought: Wako Pure Chemical (Cat. No. 126-02671), used without further purification
The experiment can be described thus: ITC; iTC200; 25 °C; PBS; VHH (10 uM) in the cell titrated with HEL (100 uM); 1:1 binding model. The conditions noted are these: both partners purified.

In experiment [18] the target is T2, hen egg lysozyme. The experiment in a line: SPR; Biacore T200; HEL immobilised on CM5 chip (200 RU); VHH flowed over; 25 °C; PBS with 0.005% Tween 20; global fit to a 1:1 binding model. The note with it: both partners purified. A digest of the protocol: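 Binding of the His6-tagged single-domain antibody, expressed in E. coli BL21(DE3) and purified by Ni-NTA and size-exclusion chromatography, was measured by surface plasmon resonance on a Biacore T200 against hen egg lysozyme immobilised on a CM5 chip (200 RU). Runs were at 25 °C in PBS with 0.005% Tween 20, with 300 s contact, 600 s dissociation and regeneration in 1.0 M Arg-HCl pH 4.4. Antibody concentrations were adjusted per mutant. Kd, kon and koff came from global fitting to a 1:1 binding model in BiaEvaluation.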

Experiment [19] concerns the target T2, hen egg lysozyme. The experiment in a line: SPR; HEL immobilised; measured at several temperatures; van't Hoff analysis (non-linear regression); PBS with 0.005% Tween 20; KD given for 25 °C from the van't Hoff free energy. The note with it: both partners purified.
In experiment [20] the target is T2, hen egg lysozyme. The experiment in a line: SPR; as a1, but KD from the responses in equilibrium (Scatchard plot, 1:1 model); HEL immobilised; 25 °C; PBS with 0.005% Tween 20. The conditions noted are these: both partners purified.
The target in experiment [21] is T2, hen egg lysozyme. The experiment can be described thus: SPR; HEL immobilised; measured at several temperatures; van't Hoff analysis (non-linear regression); PBS with 0.005% Tween 20; KD given for 25 °C from the van't Hoff free energy. The note with it: both partners purified. The source holds these as a separate data set.

Chain of hen egg lysozyme (hen) (P00698 19-147): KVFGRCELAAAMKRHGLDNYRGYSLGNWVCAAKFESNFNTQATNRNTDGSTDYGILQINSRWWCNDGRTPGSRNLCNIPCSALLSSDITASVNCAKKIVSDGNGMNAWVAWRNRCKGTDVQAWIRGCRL
T1 sequence (P00698 19-147): as above
T2 sequence (P00698 19-147): as above

B1: D3-L11 Y102A (VHH)
VHH: DVQLVESGGGSVQAGGSLRLSCAASGSTDSIEYMTWFRQAPGKAREGVAALYTHTGNTYYTDSVKGRFTISQDKAKNMAYLRMDSVKSEDTAIYTCGATRKAVPVRFALDQSSYDYWGQGTQVTVSS
notes: the substitution is still to be applied; source: E. coli BL21(DE3), purified (Ni-NTA, SEC)
B1 had a ddH against WT antibody (ITC) in experiment [1] of 4.8 kcal/mol. Also, the Kd in experiment [2] amounted to 635 nM; in experiment [3], 1800 nM; in experiment [4] it was 295 nM; in [5], 100 nM; in experiment [6], 146 nM; in experiment [7] it was 191 nM. Moreover, the Kd in experiment [8] turned out to be 233 nM; in experiment [9], 418 nM; in experiment [10], 303 ± 32 nM; in [11] it was 348 ± 42 nM; in [12], 429 ± 48 nM; in experiment [13] it was 529 ± 55 nM. The Kd in [14] came to 658 ± 64 nM; in [15] it was 867 ± 70 nM; in experiment [16], 413 nM. In [3], the “stoichiometry N” value was determined as 1.23. Further, the koff worked out at 0.686 s⁻¹ in experiment [4]; 0.116 s⁻¹ in experiment [5]; 0.201 s⁻¹ in [6]; 0.309 s⁻¹ in experiment [7]; 0.479 s⁻¹ in [8]; 0.83 s⁻¹ in experiment [9]. The kon is 2.32e+06 M⁻¹ s⁻¹ in [4]; 1.15e+06 M⁻¹ s⁻¹ in experiment [5]; 1.38e+06 M⁻¹ s⁻¹ in [6]; 1.62e+06 M⁻¹ s⁻¹ in experiment [7]; 2.06e+06 M⁻¹ s⁻¹ in experiment [8]; 1.99e+06 M⁻¹ s⁻¹ in experiment [9]. In experiment [16], the dH (van't Hoff) is -12 kcal/mol.

B2: D3-L11 (VHH)
VHH: B1 VHH with A102Y
notes: VHH D3-L11 specific for HEL; Synthetic gene in pRA2 with a pelB signal peptide at the N-terminus and a His6-tag at the C-terminus; also called WT; WT antibody; source: E. coli BL21(DE3), purified (Ni-NTA, SEC)
The molecule B2 yielded a dH in [17] of -21.4 ± 0.6 kcal/mol. Moreover, in [18], binding was put at a Kd of 0.129 nM, the koff came to 0.000785 s⁻¹ and the kon is 6.1e+06 M⁻¹ s⁻¹. In experiment [19], the “dH (van't Hoff)” value is -17 kcal/mol.

B3: D3-L11 Y52A (VHH)
VHH: B1 VHH with Y52A, A102Y
notes: as the VHH chain of m2 with the stated change; source: E. coli BL21(DE3), purified (Ni-NTA, SEC)
For the molecule B3, the “ddH against WT antibody (ITC)” value in [17] stood at 9.1 ± 1.4 kcal/mol. The dissociation constant Kd in [20] came to 144 ± 22 nM. In experiment [18], this molecule registered a Kd of 46.1 nM, a koff of 0.128 s⁻¹ and a kon of 2.77e+06 M⁻¹ s⁻¹. For the same molecule, binding in experiment [21] was put at a Kd of 46 ± 19 nM. For the same molecule, the “dH (van't Hoff)” value in experiment [19] is -11 kcal/mol.
